Measurements as given in patent US20250333531A1.

Target: human CD37 (human) (UniProt P11049)
Assay: flow cytometry on Ramos cells (HEK293 supernatants), MFI normalised to chHH1-DOTA

human CD37 (human), sequence (P11049 whole entry): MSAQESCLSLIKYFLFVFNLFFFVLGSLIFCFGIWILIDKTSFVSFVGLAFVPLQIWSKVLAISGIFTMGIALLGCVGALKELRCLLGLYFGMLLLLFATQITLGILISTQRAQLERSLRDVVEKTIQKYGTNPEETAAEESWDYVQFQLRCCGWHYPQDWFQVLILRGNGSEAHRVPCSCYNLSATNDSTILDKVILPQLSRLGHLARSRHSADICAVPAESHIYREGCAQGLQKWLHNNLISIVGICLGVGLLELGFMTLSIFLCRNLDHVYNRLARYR

B1: HC1 + LC1 (antibody, human IgG1, V domains shown)
VH: QVQLVQSGAEVKKPGASVKVSCKASGYSFTDYNMYWVRQAPGQRLEWMGYIDPYNGDTTYNQKFKGRVTITRDTSASTAYMELSSLRSEDTAVYYCARSPYGHYAMDYWGQGTLVTVSS
VL: DIQMTQSPSSLSASVGDRVTITCKASQDVSTAVDWYQQKPGKAPKLLIYWASTRHTGVPSRFSGSGSGTDFTLTISSLQPEDFATYYCRQHYSTPFTFGQGTKLEIK
In the case of B1, the Normalized average binding (%) is reported as 40%.
